Test [1] has as its target Envelope glycoprotein (E) of parental DENV-4 (C6/36) (dengue virus type 4, UniProt P09866 280-774).
The target in a further test is purified human C1q (human, UniProt P02745 23-245; P02746 28-253; P02747 29-245). As to the kind of experiment: ELISA, IgG titrated against purified human C1q. A general note: In an ELISA, binding on a coated surface is turned into a signal by an enzyme label.
A further test has as its target human Fcγ R IIIB (human, UniProt O75015 17-200). As to the kind of experiment: ELISA, IgG titrated against human Fcγ R IIIB.
The next test addresses T1, human Fcγ R IIB (human, UniProt P31994 46-217).
T1 sequence: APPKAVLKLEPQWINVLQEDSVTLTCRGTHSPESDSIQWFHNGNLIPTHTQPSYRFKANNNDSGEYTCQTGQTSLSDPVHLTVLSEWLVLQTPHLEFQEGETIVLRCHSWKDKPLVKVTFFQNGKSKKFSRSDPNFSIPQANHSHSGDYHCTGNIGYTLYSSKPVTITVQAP
The test is described as follows: ELISA, IgG titrated against human Fcγ R IIB.

A further test addresses human Fcγ R I (human, UniProt P12314 16-288). As to the kind of experiment: ELISA, IgG titrated against human Fcγ R I.

purified human C1q, sequence (P02745 23-245 limits assumed, chain 1 of 3): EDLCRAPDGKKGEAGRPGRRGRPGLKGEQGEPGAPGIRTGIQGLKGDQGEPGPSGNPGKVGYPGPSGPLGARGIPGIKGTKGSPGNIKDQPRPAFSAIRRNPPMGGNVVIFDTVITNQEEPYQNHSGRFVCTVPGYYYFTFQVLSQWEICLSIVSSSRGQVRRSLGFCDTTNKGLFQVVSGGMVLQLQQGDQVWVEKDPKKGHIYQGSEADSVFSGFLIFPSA
purified human C1q, sequence (P02746 28-253 limits assumed, chain 2 of 3): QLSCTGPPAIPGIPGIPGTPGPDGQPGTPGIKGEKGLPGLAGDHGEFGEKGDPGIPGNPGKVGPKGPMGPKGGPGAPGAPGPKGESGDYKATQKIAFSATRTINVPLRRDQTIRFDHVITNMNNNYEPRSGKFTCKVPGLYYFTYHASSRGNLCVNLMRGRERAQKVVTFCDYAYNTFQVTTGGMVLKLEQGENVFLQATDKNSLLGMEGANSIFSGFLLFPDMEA
purified human C1q, sequence (P02747 29-245 limits assumed, chain 3 of 3): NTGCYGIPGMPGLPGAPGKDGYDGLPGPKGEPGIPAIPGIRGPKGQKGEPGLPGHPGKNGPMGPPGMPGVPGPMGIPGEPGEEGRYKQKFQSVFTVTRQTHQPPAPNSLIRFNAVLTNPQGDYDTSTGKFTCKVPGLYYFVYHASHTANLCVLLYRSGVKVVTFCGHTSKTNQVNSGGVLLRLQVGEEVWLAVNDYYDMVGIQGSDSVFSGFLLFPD
human Fcγ R I, sequence (P12314 16-288 limits assumed): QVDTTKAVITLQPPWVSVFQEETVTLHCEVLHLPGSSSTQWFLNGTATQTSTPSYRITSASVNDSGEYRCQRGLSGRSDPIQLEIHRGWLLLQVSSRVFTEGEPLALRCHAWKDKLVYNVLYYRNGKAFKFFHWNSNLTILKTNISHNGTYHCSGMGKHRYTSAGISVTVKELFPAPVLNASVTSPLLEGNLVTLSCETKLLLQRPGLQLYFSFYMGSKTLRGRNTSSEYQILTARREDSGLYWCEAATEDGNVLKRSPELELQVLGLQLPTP
Envelope glycoprotein (E) of parental DENV-4 (C6/36), sequence (P09866 280-774 limits assumed): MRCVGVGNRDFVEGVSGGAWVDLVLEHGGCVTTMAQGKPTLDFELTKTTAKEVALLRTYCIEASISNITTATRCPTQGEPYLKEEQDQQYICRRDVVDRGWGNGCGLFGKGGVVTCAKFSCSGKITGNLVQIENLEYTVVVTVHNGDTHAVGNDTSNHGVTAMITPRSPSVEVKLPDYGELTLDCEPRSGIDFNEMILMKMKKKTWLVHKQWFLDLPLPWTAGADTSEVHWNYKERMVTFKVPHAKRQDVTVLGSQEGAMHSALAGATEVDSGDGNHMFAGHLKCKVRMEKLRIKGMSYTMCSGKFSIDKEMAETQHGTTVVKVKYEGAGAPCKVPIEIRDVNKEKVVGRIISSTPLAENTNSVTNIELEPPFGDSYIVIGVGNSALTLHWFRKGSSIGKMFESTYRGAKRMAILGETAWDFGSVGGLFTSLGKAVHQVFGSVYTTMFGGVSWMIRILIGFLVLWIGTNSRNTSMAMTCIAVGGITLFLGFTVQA
human Fcγ R IIIB, sequence (O75015 17-200 limits assumed): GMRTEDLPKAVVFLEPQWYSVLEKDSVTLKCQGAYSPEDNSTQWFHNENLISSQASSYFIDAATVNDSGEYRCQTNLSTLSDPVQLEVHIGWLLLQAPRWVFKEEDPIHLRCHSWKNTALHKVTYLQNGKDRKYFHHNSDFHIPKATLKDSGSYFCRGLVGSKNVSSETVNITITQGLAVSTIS

B1: Chimpanzee antibody Fab 5H2 (Fab, V domains shown)
VH: EVQLLESGPGLVKPSETLSLTCTVSGGSISDFYWSWLRQSPGKGLEWIGYAHSRVSAYYNPSLKSRVTISVDTSKNQLSLRLSAVTAADTALYYCARQGTGTTGVSEDPFDLWGQGTKVIVSL
VL: ELQMTQSPSSLSASVGDRVTITCRASQDISIRLNWYQQKPGKAPKLLIYDASTLESGVPSRFSGSGSGTDFTLTISSLQPEDFATYYCQQFNSYPLTFGGGTKVEIKR
As usually defined, the Kd is the free concentration of one partner at which half of the binding sites on the other are occupied at equilibrium, for simple one-to-one binding. Regarding B1, the equilibrium dissociation constant (Kd) in test [1] was 0.21 nM.

B2: Humanized IgG 1A5 (IgG1), full-length (antibody)
heavy: not shown
light: ELQMTQSPSSVSASVGDTVTIACRASQSITNYLSWYQQKPGKAPKLLIYHASTLQSGIPSRFSGSGSGTDFTLTISSLQPDDFATYYCHYGYGTHTFGQGTKLEIKRTVAAPSVFIFPPSDEQLKSGTASVVCLLNNFYPREAKVQWKVDNALQSGNSQESVTEQDSKDNTYSLSSTLTLSKADYEKHKVYACEVTHQGLSSPVTKSFN
notes: also called IgG 1A5 WT; MAb IgG 1A5; copies: 2 + 2
For orientation: EC50 (read off the curve) means the concentration needed to bring the measured effect to its halfway point. Low values mean greater potency, high ones weaker potency. As to B2, the binding result with purified human C1q, in the test with human Fcγ R IIIB and in the test with human Fcγ R IIB was “binds” throughout. Besides, in the test with human Fcγ R I, the 50% effective concentration (EC50 (read off the curve)) is around 0.7 µg/mL.

B3: IgG 1A5 ΔA (replacement amino acids at 327, 330 and 331 from the Fc of IgG4) (antibody)
chain 1: EVQLLESGGGLVQPGGSRRLSCAASGFTISDNVMHWVRQAPGKGLEWVALIYSADTTHYADSVKGRFTISRDNSKNTLYLQMDSLRPEDTAVYYCAREYCTGDTCFAHFDYWGQGTLVSVSSASTKGPSVFPLAPSSKSTSGGTAALGCLVKDYFPEPVTVSWNSGALTSGVHTFPAVLQSSGLYSLSSVVTVPSSSLGTQTYICNVDHKPSNTKVDKKVEPKSCDKTHTCPPCPAPELLGGPSVFLFPPKPKDTLMISRTPEVTCVVVDVSHEDPEVKFNWYVDGVEVHNAKTKPREEQYNSTYRVVSVLTVLHQDWLNGKEYKCKVSNKGLPSSIEKTISKAKGQPREPQVYTLPPSRDELTKNQVSLTCLVKGFYPSDIAVEWESNGQPENNYKTTPPVLDSDGSFFLYSKLTVDKSRWQQGNVFSCSVMHEALHNHYTQKSLSLSPGK
chain 2: ELQMTQSPSSVSASVGDTVTIACRASQSITNYLSWYQQKPGKAPKLLIYHASTLQSGIPSRFSGSGSGTDFTLTISSLQPDDFATYYCHYGYGTHTFGQGTKLEIKRTVAAPSVFIFPPSDEQLKSGTASVVCLLNNFYPREAKVQWKVDNALQSGNSQESVTEQDSKDNTYSLSSTLTLSKADYEKHKVYACEVTHQGLSSPVTKSFN
For B3, the “EC50 (read off the curve)” value with human Fcγ R I is around 3 µg/mL.

B4: IgG 1A5 ΔD (IgG 1A5 with the 9-amino-acid deletion, amino acids 231-239, in the CH2 domain) (antibody)
heavy: EVQLLESGGGLVQPGGSRRLSCAASGFTISDNVMHWVRQAPGKGLEWVALIYSADTTHYADSVKGRFTISRDNSKNTLYLQMDSLRPEDTAVYYCAREYCTGDTCFAHFDYWGQGTLVSVSSASTKGPSVFPLAPSSKSTSGGTAALGCLVKDYFPEPVTVSWNSGALTSGVHTFPAVLQSSGLYSLSSVVTVPSSSLGTQTYICNVDHKPSNTKVDKKVEPKSCDKTHTCPPCPVFLFPPKPKDTLMISRTPEVTCVVVDVSHEDPEVKFNWYVDGVEVHNAKTKPREEQYNSTYRVVSVLTVLHQDWLNGKEYKCKVSNKALPAPIEKTISKAKGQPREPQVYTLPPSRDELTKNQVSLTCLVKGFYPSDIAVEWESNGQPENNYKTTPPVLDSDGSFFLYSKLTVDKSRWQQGNVFSCSVMHEALHNHYTQKSLSLSPGK
light: ELQMTQSPSSVSASVGDTVTIACRASQSITNYLSWYQQKPGKAPKLLIYHASTLQSGIPSRFSGSGSGTDFTLTISSLQPDDFATYYCHYGYGTHTFGQGTKLEIKRTVAAPSVFIFPPSDEQLKSGTASVVCLLNNFYPREAKVQWKVDNALQSGNSQESVTEQDSKDNTYSLSSTLTLSKADYEKHKVYACEVTHQGLSSPVTKSFN
notes: also called variant ΔD; copies: 2 + 2
B4: in the test with purified human C1q, the binding result is reported as “no binding”.

B5: Humanized IgG 5H2 ΔD (IgG1 5H2 with a 9-amino-acid deletion, positions 231-239, at the N-terminus of the CH2 domain) (antibody)
heavy: EVQLLESGPGLVKPSETLSLTCTVSGGSISDFYWSWLRQSPGKGLEWIGYAHSRVSAYYNPSLKSRVTISVDTSKNQLSLRLSAVTAADTALYYCARQGTGTTGVSEDFFDLWGQGTKVIVSLASTKGPSVFPLAPSSKSTSGGTAALGCLVKDYFPEPVTVSWNSGALTSGVHTFPAVLQSSGLYSLSSVVTVPSSSLGTQTYICNVDHKPSNTKVDKKVEPKSCDKTHTCPPCPVFLFPPKPKDTLMISRTPEVTCVVVDVSHEDPEVKFNWYVDGVEVHNAKTKPREEQYNSTYRVVSVLTVLHQDWLNGKEYKCKVSNKALPAPIEKTISKAKGQPREPQVYTLPPSRDELTKNQVSLTCLVKGFYPSDIAVEWESNGQPENNYKTTPPVLDSDGSFFLYSKLTVDKSRWQQGNVFSCSVMHEALHNHYTQKSLSLSPGK
light: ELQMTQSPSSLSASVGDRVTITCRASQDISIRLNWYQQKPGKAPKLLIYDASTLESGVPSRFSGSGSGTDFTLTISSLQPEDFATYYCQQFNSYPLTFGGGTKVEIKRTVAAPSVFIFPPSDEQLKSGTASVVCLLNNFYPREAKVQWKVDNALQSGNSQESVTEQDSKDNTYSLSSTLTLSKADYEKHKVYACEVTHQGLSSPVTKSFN
notes: also called IgG1 5H2 ΔD; IgG 5H2D; copies: 2 + 2
For the molecule B5, the Kd in test [1] was 0.14 nM. The binding result in the test with purified human C1q is given as “no binding”.

The values are drawn from patent publication US20100247549A1 (US Dept. of Health and Human Services, published 2010).
